Experiments:
AncSZ = test: phosphorylation enrichment, bacterial display (enrichment ratio); higher = better substrate or ligand; peptides without Tyr show the background
EPHB1 = EPHB1 (UniProt P54762); test: as above
EPHB2 = EPHB2 (UniProt P29323); test: as above
FGFR1 = FGFR1 (UniProt P11362); test: as above
FGFR3 = FGFR3 (UniProt P22607); test: as above
Fer (mouse) = test: as above
Fes = Fes (UniProt P07332); test: as above
Fyn = Fyn (UniProt P06241); test: as above
Hck = Hck (UniProt P08631); test: as above
Jak2 = Jak2 (UniProt O60674); test: as above
MERTK = MERTK (UniProt Q12866); test: as above
c-Abl (mouse) = test: as above
c-Src = test: as above
Grb2 SH2 = Grb2 SH2 (UniProt P62993); test: SH2 binding enrichment of the phosphorylated peptide, bacterial display (enrichment ratio); higher = better substrate or ligand; peptides without Tyr show the background
SHP2-C SH2 = test: as above
c-Src SH2 = test: as above
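Throughout, for SH2 binding enrichment of the phosphorylated peptide, bacterial display: peptide library displayed on the E. coli surface as eCPX fusions, selected cells deep-sequenced, score is each peptide's frequency after selection divided by its frequency in the input.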
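Throughout, for phosphorylation enrichment, bacterial display: 11-residue human phosphosite peptides and single-mutation variants displayed on the E. coli surface, counted by deep sequencing, each peptide's frequency after selection divided by its frequency in the unselected input library; frequency after pTyr selection over input frequency; kinase dosed for 20-30% of maximal phosphorylation in three min.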

Chain of MERTK (Q12866 whole entry, looked up): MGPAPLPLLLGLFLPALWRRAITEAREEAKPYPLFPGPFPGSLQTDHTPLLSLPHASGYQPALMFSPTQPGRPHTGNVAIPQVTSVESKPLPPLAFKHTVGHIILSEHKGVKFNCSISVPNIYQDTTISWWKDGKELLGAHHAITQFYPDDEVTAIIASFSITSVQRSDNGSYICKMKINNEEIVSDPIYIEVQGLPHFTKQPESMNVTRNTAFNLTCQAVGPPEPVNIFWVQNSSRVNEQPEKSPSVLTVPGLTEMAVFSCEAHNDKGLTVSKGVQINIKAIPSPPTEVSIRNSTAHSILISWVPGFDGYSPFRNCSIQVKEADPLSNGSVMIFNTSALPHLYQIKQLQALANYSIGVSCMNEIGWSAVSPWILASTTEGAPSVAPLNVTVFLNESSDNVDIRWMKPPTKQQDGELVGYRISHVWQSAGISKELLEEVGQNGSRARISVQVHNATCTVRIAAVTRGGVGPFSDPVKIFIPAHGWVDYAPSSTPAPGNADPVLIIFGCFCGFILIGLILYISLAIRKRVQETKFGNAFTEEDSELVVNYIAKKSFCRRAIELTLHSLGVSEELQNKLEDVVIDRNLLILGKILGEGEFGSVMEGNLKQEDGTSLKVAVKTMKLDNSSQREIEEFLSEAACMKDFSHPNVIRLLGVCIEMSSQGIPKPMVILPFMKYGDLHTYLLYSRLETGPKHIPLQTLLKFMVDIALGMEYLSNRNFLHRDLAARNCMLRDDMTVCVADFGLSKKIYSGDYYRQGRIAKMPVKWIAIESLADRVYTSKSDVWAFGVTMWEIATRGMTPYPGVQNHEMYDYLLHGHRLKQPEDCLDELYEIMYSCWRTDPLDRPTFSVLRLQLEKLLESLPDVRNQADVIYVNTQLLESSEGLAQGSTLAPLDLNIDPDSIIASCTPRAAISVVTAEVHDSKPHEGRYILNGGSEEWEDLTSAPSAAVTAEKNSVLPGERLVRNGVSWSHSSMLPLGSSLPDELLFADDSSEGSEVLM
Chain of FGFR1 (P11362 whole entry, looked up): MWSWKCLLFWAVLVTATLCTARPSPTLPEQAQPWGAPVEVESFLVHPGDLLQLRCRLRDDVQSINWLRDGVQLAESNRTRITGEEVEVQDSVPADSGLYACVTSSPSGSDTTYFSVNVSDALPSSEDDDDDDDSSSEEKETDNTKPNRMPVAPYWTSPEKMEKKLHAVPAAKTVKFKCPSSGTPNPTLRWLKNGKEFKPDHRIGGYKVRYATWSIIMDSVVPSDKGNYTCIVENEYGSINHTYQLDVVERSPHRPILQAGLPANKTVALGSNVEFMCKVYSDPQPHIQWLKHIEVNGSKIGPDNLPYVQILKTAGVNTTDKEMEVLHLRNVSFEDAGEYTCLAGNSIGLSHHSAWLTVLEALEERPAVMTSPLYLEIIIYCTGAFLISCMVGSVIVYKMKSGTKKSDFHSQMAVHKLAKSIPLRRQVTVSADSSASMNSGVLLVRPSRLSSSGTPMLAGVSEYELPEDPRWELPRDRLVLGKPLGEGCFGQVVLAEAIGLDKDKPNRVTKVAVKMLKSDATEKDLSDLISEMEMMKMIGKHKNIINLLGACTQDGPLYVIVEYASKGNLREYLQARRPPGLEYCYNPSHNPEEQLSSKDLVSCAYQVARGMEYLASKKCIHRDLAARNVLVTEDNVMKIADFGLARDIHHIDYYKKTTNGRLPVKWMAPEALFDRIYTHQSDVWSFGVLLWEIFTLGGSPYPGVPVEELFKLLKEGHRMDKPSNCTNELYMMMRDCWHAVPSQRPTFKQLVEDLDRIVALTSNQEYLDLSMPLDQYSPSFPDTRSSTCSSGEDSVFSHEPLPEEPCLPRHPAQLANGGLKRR
Chain of Fyn (P06241 whole entry, looked up): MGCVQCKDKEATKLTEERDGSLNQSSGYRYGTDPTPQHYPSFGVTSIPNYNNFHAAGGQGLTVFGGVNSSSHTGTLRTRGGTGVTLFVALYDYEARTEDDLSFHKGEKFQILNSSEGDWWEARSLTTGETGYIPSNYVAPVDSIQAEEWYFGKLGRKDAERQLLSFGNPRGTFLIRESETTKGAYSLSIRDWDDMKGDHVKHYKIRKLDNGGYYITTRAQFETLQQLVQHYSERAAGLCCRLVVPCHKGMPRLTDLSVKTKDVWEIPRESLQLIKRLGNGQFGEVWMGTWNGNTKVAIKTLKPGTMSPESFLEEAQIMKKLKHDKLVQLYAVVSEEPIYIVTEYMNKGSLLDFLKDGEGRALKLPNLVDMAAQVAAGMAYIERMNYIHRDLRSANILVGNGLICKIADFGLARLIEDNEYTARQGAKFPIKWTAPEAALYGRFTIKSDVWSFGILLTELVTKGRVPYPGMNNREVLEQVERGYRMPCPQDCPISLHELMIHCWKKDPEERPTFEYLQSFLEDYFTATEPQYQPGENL
Chain of Fes (P07332 whole entry, looked up): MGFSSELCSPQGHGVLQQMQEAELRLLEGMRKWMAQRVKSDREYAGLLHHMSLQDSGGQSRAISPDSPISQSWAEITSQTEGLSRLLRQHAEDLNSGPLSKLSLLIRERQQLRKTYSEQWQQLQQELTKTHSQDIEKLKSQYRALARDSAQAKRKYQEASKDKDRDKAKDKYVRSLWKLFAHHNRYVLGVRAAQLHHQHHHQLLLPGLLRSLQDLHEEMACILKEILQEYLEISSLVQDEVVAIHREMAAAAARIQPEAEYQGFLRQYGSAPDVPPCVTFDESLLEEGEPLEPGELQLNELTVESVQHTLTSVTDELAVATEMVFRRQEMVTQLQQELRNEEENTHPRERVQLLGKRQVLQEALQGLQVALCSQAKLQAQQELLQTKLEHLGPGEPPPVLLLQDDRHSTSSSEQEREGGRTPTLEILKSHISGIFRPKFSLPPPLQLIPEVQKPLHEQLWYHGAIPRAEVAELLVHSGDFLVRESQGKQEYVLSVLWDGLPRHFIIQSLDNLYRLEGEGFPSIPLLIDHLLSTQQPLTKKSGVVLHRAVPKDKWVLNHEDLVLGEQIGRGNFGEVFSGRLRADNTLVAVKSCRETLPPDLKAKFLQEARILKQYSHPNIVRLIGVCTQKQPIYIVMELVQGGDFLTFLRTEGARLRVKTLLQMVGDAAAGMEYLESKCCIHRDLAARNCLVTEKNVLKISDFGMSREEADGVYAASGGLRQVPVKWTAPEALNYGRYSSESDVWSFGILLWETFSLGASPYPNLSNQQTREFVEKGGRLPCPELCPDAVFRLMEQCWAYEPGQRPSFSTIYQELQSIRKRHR
Chain of Hck (P08631 whole entry, looked up): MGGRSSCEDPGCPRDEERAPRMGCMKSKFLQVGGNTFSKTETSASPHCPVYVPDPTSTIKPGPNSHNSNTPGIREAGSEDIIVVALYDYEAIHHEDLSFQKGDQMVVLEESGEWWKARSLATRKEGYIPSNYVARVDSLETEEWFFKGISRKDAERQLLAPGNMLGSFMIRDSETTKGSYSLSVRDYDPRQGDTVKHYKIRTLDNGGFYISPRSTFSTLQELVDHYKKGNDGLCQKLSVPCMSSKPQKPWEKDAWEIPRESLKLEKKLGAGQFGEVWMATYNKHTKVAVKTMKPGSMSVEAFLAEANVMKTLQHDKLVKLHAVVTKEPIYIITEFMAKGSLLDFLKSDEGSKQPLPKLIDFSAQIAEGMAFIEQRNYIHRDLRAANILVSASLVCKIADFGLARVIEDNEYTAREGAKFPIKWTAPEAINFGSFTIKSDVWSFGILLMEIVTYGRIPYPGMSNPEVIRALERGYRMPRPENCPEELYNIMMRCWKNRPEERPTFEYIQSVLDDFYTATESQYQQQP
Chain of EPHB2 (P29323 whole entry, looked up): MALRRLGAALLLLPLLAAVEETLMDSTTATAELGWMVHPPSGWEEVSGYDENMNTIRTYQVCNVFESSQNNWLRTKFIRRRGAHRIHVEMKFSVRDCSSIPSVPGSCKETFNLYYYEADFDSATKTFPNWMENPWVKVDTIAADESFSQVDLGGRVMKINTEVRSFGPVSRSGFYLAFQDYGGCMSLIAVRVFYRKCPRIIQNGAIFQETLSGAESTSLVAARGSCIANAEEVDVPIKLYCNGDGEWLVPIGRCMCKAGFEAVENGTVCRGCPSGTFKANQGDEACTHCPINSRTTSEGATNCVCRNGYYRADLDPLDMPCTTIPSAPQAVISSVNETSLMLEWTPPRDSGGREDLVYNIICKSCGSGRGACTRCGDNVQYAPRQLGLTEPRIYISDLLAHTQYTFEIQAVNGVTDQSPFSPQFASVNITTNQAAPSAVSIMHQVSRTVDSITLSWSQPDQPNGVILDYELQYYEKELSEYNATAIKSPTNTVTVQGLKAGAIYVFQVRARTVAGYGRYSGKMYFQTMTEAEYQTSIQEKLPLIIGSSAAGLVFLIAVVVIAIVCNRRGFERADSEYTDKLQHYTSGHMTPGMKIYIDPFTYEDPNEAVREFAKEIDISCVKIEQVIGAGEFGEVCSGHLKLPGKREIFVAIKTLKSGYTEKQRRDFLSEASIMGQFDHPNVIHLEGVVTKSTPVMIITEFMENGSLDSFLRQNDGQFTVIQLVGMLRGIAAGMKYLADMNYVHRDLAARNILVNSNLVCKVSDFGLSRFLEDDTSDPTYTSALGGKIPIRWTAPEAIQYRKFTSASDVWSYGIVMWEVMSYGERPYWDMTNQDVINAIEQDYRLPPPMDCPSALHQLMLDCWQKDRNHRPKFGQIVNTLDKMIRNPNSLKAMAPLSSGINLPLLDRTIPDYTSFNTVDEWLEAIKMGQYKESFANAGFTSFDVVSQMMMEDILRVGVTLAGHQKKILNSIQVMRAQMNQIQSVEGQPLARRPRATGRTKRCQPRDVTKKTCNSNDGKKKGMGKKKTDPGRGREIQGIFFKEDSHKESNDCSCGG

Row | Sequence | SH2 binding enrichment (Grb2 SH2) | SH2 binding enrichment (SHP2-C SH2) | SH2 binding enrichment (c-Src SH2) | phosphorylation enrichment (AncSZ) | phosphorylation enrichment (EPHB1) | phosphorylation enrichment (EPHB2) | phosphorylation enrichment (FGFR1) | phosphorylation enrichment (FGFR3) | phosphorylation enrichment (Fer (mouse)) | phosphorylation enrichment (Fes) | phosphorylation enrichment (Fyn) | phosphorylation enrichment (Hck) | phosphorylation enrichment (Jak2) | phosphorylation enrichment (MERTK) | phosphorylation enrichment (c-Abl (mouse)) | phosphorylation enrichment (c-Src)
1 | FTRNYYVQAVL [CYBA_Y88_R90Q] | 0.839 | 0.834 | 0.591 | 1.01 | 0.66 | 0.558 | 1.59 | 2.67 | 0.512 | 0.981 | 0.486 | 0.521 | 1.06 | 0.887 | 0.813 | 0.538
2 | GANFEYIIAEK [ECHS1_Y35] | 0.576 | 0.547 | 0.447 | 0.911 | 0.501 | 0.455 | 0.523 | 0.594 | 0.406 | 0.862 | 0.479 | 0.553 | 0.883 | 0.513 | 0.544 | 0.48
3 | GDLTDYLMKIL [ACTA1_Y190_R185G] | 1.44 | 1.19 | 0.711 | 0.788 | 0.508 | 0.476 | 0.437 | 0.509 | 0.42 | 0.821 | 0.397 | 0.453 | 0.648 | 0.355 | 0.56 | 0.323
4 | GEAEQYVGGGG [FAT4_Y4980] | 1.16 | 0.584 | 0.464 | 0.842 | 0.394 | 0.414 | 0.543 | 0.687 | 0.448 | 0.87 | 0.465 | 0.44 | 0.746 | 0.371 | 0.584 | 0.327
5 | GEHSIYCTVNN [CD55_Y266] | 0.598 | 0.639 | 0.48 | 1.55 | 6.56 | 5.39 | 0.955 | 1.07 | 5.03 | 1.73 | 5.28 | 5.61 | 1.22 | 2.08 | 1.98 | 4.66
6 | GETEQYVGGGG [FAT4_Y4980_A4977T] | 0.798 | 0.553 | 0.506 | 0.889 | 0.526 | 0.475 | 0.437 | 0.599 | 0.436 | 0.922 | 0.475 | 0.467 | 0.66 | 0.414 | 0.624 | 0.419
7 | GFAGKYIAMVM [CYP19A1_Y441_C437Y_YF] | 0.821 | 0.81 | 0.755 | 0.694 | 0.41 | 0.823 | 0.454 | 0.49 | 0.539 | 0.858 | 0.453 | 0.556 | 0.594 | 0.525 | 0.473 | 0.599
8 | GFKVRYATGSI [FGFR1_Y210_W213G_YF] | 1.28 | 1 | 0.706 | 0.628 | 0.473 | 0.404 | 0.516 | 0.471 | 0.362 | 0.689 | 0.417 | 0.44 | 0.651 | 0.455 | 0.541 | 0.343
9 | GHLFACDWISI [BEST1_Y227_Y227C_YF] | 0.945 | 0.806 | 0.749 | 0.937 | 0.408 | 0.522 | 0.613 | 0.639 | 0.487 | 1.01 | 0.45 | 0.469 | 0.711 | 0.396 | 0.531 | 0.386
10 | GIVEDYRPRFF [ACVRL1_Y421_P424R_YF] | 0.985 | 0.832 | 0.468 | 0.811 | 0.616 | 0.468 | 0.467 | 0.655 | 0.513 | 0.814 | 0.372 | 0.427 | 0.816 | 0.626 | 0.681 | 0.459
11 | GIVEDYRPTFY [ACVRL1_Y421_P424T] | 0.875 | 0.657 | 0.763 | 0.83 | 0.561 | 0.484 | 0.441 | 0.648 | 0.373 | 0.866 | 0.513 | 0.475 | 0.661 | 0.404 | 0.899 | 0.347
12 | GLPQTYCVSGP [DYSF_Y1684] | 0.839 | 0.528 | 0.611 | 0.978 | 0.72 | 0.667 | 0.497 | 0.655 | 0.559 | 0.978 | 0.629 | 0.631 | 0.609 | 0.605 | 0.583 | 0.524
13 | GMAHNYRNSSQ [AASS_Y188] | 0.702 | 0.57 | 0.482 | 0.589 | 0.255 | 0.47 | 0.371 | 0.431 | 0.384 | 0.45 | 0.446 | 0.414 | 0.434 | 0.418 | 0.313 | 0.386
14 | GPGLVYRVANK [FLNB_Y1833_G1834R] | 0.999 | 0.722 | 0.499 | 0.785 | 0.471 | 0.436 | 0.515 | 0.597 | 0.445 | 0.793 | 0.485 | 0.498 | 0.688 | 0.399 | 0.716 | 0.541
15 | GSERDYTFDEL [EIF2S2_Y174_E177D_YF] | 0.919 | 0.681 | 0.508 | 1.25 | 0.577 | 0.564 | 0.583 | 0.871 | 0.582 | 1.18 | 0.474 | 0.528 | 1.21 | 0.515 | 0.837 | 0.639
16 | GSERDYTFEEL [EIF2S2_Y174_YF] | 0.897 | 0.583 | 0.537 | 1.14 | 0.571 | 0.598 | 0.602 | 0.749 | 0.499 | 1.27 | 0.453 | 0.505 | 1.07 | 0.479 | 0.738 | 0.566
17 | GTYVIYVRFSG [FLNB_Y1687_G1691S] | 1.05 | 1.44 | 0.587 | 1.26 | 0.696 | 0.543 | 0.447 | 0.828 | 0.639 | 1.3 | 0.509 | 0.514 | 1.31 | 0.455 | 0.941 | 0.532

Now from value to sequence, other results behind:

Row | SH2 binding enrichment (Grb2 SH2) | SH2 binding enrichment (SHP2-C SH2) | SH2 binding enrichment (c-Src SH2) | Sequence | phosphorylation enrichment (AncSZ) | phosphorylation enrichment (EPHB1) | phosphorylation enrichment (EPHB2) | phosphorylation enrichment (FGFR1) | phosphorylation enrichment (FGFR3) | phosphorylation enrichment (Fer (mouse)) | phosphorylation enrichment (Fes) | phosphorylation enrichment (Fyn) | phosphorylation enrichment (Hck) | phosphorylation enrichment (Jak2) | phosphorylation enrichment (MERTK) | phosphorylation enrichment (c-Abl (mouse)) | phosphorylation enrichment (c-Src)
18 | 0.756 | 0.723 | 2.61 | FTNRSYDLDFD [MYC_Y12_N11S_YF] | 0.978 | 0.505 | 0.58 | 0.685 | 0.708 | 0.476 | 1.13 | 0.55 | 0.64 | 0.922 | 0.422 | 0.77 | 0.499
19 | 0.744 | 0.632 | 0.528 | GDAMLYFPSVS [GPR143_Y177_A173D_YF] | 0.721 | 0.511 | 0.446 | 0.801 | 0.98 | 0.521 | 0.823 | 0.55 | 0.692 | 1.92 | 0.726 | 0.674 | 0.746
20 | 0.913 | 0.696 | 0.4 | GDFFRSLAEVA [YWHAG_Y133_Y133S_YF] | 0.871 | 0.423 | 0.503 | 0.486 | 0.595 | 0.438 | 0.865 | 0.464 | 0.405 | 0.72 | 0.357 | 0.721 | 0.425
21 | 0.868 | 0.788 | 0.622 | GEDLSYGDLPP [IRS1_Y151_V154L] | 1.3 | 0.661 | 0.664 | 0.597 | 0.786 | 0.794 | 1.34 | 0.571 | 0.564 | 1.22 | 0.543 | 0.899 | 0.582
22 | 0.626 | 0.538 | 0.308 | GGEEFYVHFVG [KAT8_Y90_R86G_YF] | 1.34 | 0.747 | 0.605 | 0.648 | 0.96 | 0.592 | 1.39 | 0.58 | 0.612 | 1.24 | 0.433 | 0.967 | 0.501
23 | 0.858 | 0.62 | 0.459 | GGFSRYDEGSG [RECQL5_Y484_D480G] | 0.733 | 0.431 | 0.558 | 0.473 | 0.659 | 0.483 | 0.928 | 0.432 | 0.468 | 0.729 | 0.435 | 0.636 | 0.416
24 | 0.802 | 0.632 | 0.531 | GGGCGYNRSSG [FUS_Y232_G230C] | 0.663 | 0.392 | 0.426 | 0.448 | 0.465 | 0.434 | 0.717 | 0.422 | 0.42 | 0.701 | 0.412 | 0.815 | 0.435
25 | 0.805 | 0.587 | 0.43 | GGGGSYNNFGN [HNRNPA1_Y312_D314N] | 0.545 | 0.379 | 0.416 | 0.362 | 0.403 | 0.378 | 0.564 | 0.388 | 0.435 | 0.463 | 0.308 | 0.335 | 0.325
26 | 0.669 | 0.488 | 0.352 | GGMTEYNLVVV [KRAS_Y4_K5N] | 1.21 | 0.642 | 0.552 | 1.08 | 1.05 | 1.17 | 1.1 | 0.486 | 0.609 | 0.981 | 0.398 | 0.758 | 0.478
27 | 0.808 | 0.575 | 0.951 | GGYNNYGYGSD [HNRNPH3_Y159_N163S] | 0.71 | 1.48 | 2.4 | 0.406 | 0.467 | 0.421 | 0.697 | 0.379 | 0.475 | 0.611 | 0.479 | 0.608 | 0.38
28 | 0.854 | 0.632 | 5.53 | GIYSGYDDAWD [POLR1C_Y36_N32I] | 1.44 | 2.36 | 2.5 | 0.568 | 0.647 | 1.46 | 1.09 | 7.64 | 5.99 | 1.05 | 2.25 | 0.835 | 5.63
29 | 0.949 | 0.512 | 0.624 | GKGGSYSKAEW [HLA-E_Y341] | 0.493 | 0.481 | 0.467 | 0.466 | 0.378 | 0.368 | 0.613 | 0.415 | 0.416 | 0.567 | 0.405 | 0.496 | 0.375
30 | 0.683 | 0.648 | 0.505 | GLDGSYLLTDS [SH2D1A_Y29_R32T] | 0.864 | 0.491 | 0.541 | 0.483 | 0.604 | 0.455 | 0.863 | 0.423 | 0.435 | 0.697 | 0.369 | 0.551 | 0.469
31 | 0.726 | 0.617 | 0.539 | GLETSYIEDNC [PAH_Y24_Q20L] | 1.04 | 0.585 | 0.569 | 0.655 | 0.564 | 0.466 | 0.937 | 0.525 | 0.487 | 0.873 | 0.497 | 0.744 | 0.513
32 | 0.979 | 0.873 | 0.634 | GLVFLYMEKNQ [PRELP_Y156] | 0.932 | 0.607 | 0.523 | 0.339 | 0.719 | 0.635 | 1.18 | 0.304 | 0.337 | 1.17 | 0.262 | 0.854 | 0.37
33 | 0.713 | 0.581 | 0.38 | GPKSTYISSAG [GOLGA5_Y62_A67G] | 0.496 | 0.298 | 0.382 | 0.326 | 0.374 | 0.345 | 0.587 | 0.395 | 0.319 | 0.411 | 0.389 | 0.464 | 0.365
